Test results reported in US20100291089A1, “LIGAND OF REGULATING IMMUNE RESPONSE, AND USE THEREOF IN TREATING AN IMMUNE RESPONSE-RELATED DISEASE” (POSTECH ACADEMY-INDUSTRY FOUNDATION, priority 2005, published 2010).
Where no end group is shown, it is not given here. [ ]: non-standard residue; d: D form.

B1: SAA: Serum amyloid A, multi-functional apolipoprotein, 12- to 14-kDa, SEQ ID NO:19 (protein, listed as Homo sapiens)
chain: MKLLTGLVFCSLVLGVSSRSFFSFLGEAFDGARDMWRAYSDMREANYIGSDKYFHARGNYDAAKRGPGGVWAAEAISDARENIQRFFGHGAEDSLADQAANEWGRSGKDPNHFRPAGLPEKY

Assays:
human neutrophils = test: Intracellular calcium mobilization (fura-2) in human neutrophils; assay type: cell-based; details: 1 M PACAP27 and 10 nM WKYMVm
Description: Neutrophils were stimulated with 1 μM of PACAP27 (SEQ ID NO:1), PACAP38 (SEQ ID NO:2), or VIP (SEQ ID NO:3), and calcium concentrations were measured for 10 min. In order to measure EKR phosphorylation, each peptide hormones was used with 1 μM concentrations for 5 min. For cAMP measurement, each peptide hormones was used with 1 μM concentrations for 10 min.
Intracellular calcium concentrations ([Ca^2+]i) were determined using Grynkiewicz's method with fura-2/AM, as described in “Grynkiewicz, G., M. Poenie, and R. Y. Tsien. 1985. […] J. Biol. Chem. 260:3440-3450”. Briefly, the cells prepared in Example 1.2 were incubated with 3 µM fura-2/AM at 37° C. for 50 minutes in fresh serum free RPMI 1640 medium with continuous stirring. The incubated cells (2×10^6) were aliquoted for each assay in Ca^2+-free Locke's solution (154 mM NaCl, 5.6 mM KCl, 1.2 mM MgCl2, 5 mM HEPES (pH 7.3), 10 mM glucose, and 0.2 mM EGTA). Fluorescence changes at 340 and 380 nm using a common emission wavelength of 500 nm were measured, and fluorescence ratios were converted to [Ca2+]i, as described in above Grynkiewicz, G. et al.

C57BL/6 mice = test: Mouse Matrigel plug assay; assay type: in vivo; details: 7 days; for vessels in Matrigel (stained sections): SAA 80 μg or WKYMVm 1 μg
Description: C57BL/6 mice (7 weeks of age) were given s.c. injections of 500 μl of Matrigel containing PBS, SAA (SEQ ID NO:19) (80 μg), or WKYMVm (SEQ ID NO:5) (1 μg). After 7 days, the skins of the mice were pulled back to expose the Matrigel plugs, which remained intact. After the noting and photographing of any quantitative differences, hemoglobin levels were measured via the Drabkin method, using a Drabkin reagent kit 525 (Sigma) for the quantitative assessment of blood vessel formation. The hemoglobin concentration was calculated from the parallel assay of a known amount of hemoglobin. The matrigel plugs were fixed in 4% formalin, embedded with paraffin, and stained using hematoxylin and eosin.

HUVECs [1] = test: HUVEC proliferation ([3H]-thymidine incorporation); assay type: cell-based, human; details: 48 h
Description: In brief, fresh synovial tissues were minced into 2- to 3-mm pieces, then treated for 4 h with 4 mg/ml type I collagenase (Worthington Biochemical), and maintained in Dulbecco's Modified Eagle's Medium (DMEM) containing 10% FBS at 37° C. in an atmosphere containing 5% CO2. […] MH7A cells, the immortalized synoviocytes that harbor the SV40 T antigen, were grown in DMEM supplemented with 10% FBS, as previously described (Miyazawa, K, A. Mori, and H. Okudaira. 1998. Establishment and characterization of a novel human rheumatoid fibroblast-like synoviocyte line, MH7A, immortalized with S[…] antigen. J. Biochem. 124: 1153-1162), and then employed in some of the experiments. Human umbilical vein endothelial cells (HUVECs) were isolated from fresh human umbilical cords via collagenase (Worthington Biochemical) digestion, and then maintained in 20% FBS-containing M-199 medium (Sigma, St. Louis, Mo.), as previously described. All HUVECs were used after no more than five passages. The RA FLS, OA FLS, and HUVECs were plated onto 24-well culture dishes at a density of 2×10^4 cells/well, and then permitted to attach overnight. […] Cell growth was also evaluated via cell counts. Control and mitogen-treated cells were harvested by trypsinization, and the number of cells was determined with a hemocytometer, under ×100 magnification.

aortic rings = test: Rat aorta ring assay; details: ex vivo, 7 days
Description: Aortas from male Sprague-Dawley rats were cross-sectioned into rings, and mounted onto polymerized Matrigel dishes. Matrigel (150 μl) was then positioned on top and allowed to gel. After 7 days, the aortic rings, incubated with PBS, SAA (SEQ ID NO:19) (3 and 5 μg/ml), WKYMVm (SEQ ID NO:5) (10 nM), VEGF (20 ng/ml), or FBS (10%) were analyzed under an inverted microscope.

HUVECs [2] = test: HUVEC tube formation assay on Matrigel; assay type: cell-based, human; details: SAA 5 μM, 18 h
Description: The wounding migration and tube formation activity of the HUVECs were measured as previously described (30, 31). In brief, HUVECs plated at confluence on 60-mm culture dishes were wounded with pipette tips, then treated with SAA (SEQ ID NO:19) (0-5 μg/ml), WKYMVm (SEQ ID NO:5) (10 nM), or VEGF (20 ng/ml) in M199 medium, supplemented with 1% serum and 1 mM thymidine. After 12 h of incubation, migration was quantitated via counts of the cells migrating beyond the reference line. […] After 18 h of incubation, the cell morphology was visualized via phase-contrast microscopy and photographed.

Molecule	calcium signaling on sequential stimulation (cross-desensitization) (human neutrophils)	vessels in Matrigel (stained sections) (C57BL/6 mice)	concentration of maximum effects on HUVEC DNA synthesis (HUVECs [1]) [µM]	DNA synthesis in HUVECs (HUVECs [1]; SAA 0.1 to 5 μM)	sprouting of endothelial cells from aortic rings (aortic rings)	formation of tube-like structures (HUVECs [2])	mean hemoglobin content of Matrigels (C57BL/6 mice; SAA 80 μg in Matrigel s.c.) [g/dL]
WKYMVm: specific agonist peptide for FPRL1, SEQ ID NO:5 (WKYMV[dM]; listed as Homo sapiens)	bidirectional desensitization	more vessels					
B1		more vessels	5	dose-dependent manner	increased as the result of SAA treatment, in a dose-dependent manner	far superior	4.90 ± 0.66
